Experimental data: CN111303278A (JANSSEN VACCINES & PREVENTION BV, dated 2020)

B1: CB017.5L (antibody, V domains shown)
VH: QVQLVESGGGVVQPGRSLRLSCSASGFTFSVYAMHWVRQAPGQGLEWVAIIWYDGSNKYYADSVKGRFTISRDNSKETLYLQMNSLRVEDTAVYYCARDPIVGHTRDGLDVWGQGTTVTVSS
VL: SYELTQPPSVSVSPGQTARVTCSGDAMAEQYTYWYQQKPGQAPVLIIFKDTERPSGIPERFSGSSSGTTVTLTISGVQTEDEADYYCQSTDSSGTSWVFGGGTKLTVL
B2: CB030.1 (antibody, V domains shown)
VH: QVQLVQSGAEMKRPGSSVKVSCKASGGTFSTFAINWVRQAPGQGFEWMGGVIPGFDSANYAQKFQGRLTMSADESTSTVYMELSSLRSDDTAVYYCAGNSGYCSGDSCAPNWGPGTLVTVSS
VL: DIVMTQSPLSLPVTPGEPASISCRSSQSLVHSNGYSYLDWYLQKPGQSPQLLIYLGSNRPSGVPDRFSGSGSGTDFTLKISRVEAEDVGVYFCMQNLQTPTFGGGTKVEIK

Target: Sym-1789
Assay: ELISA, biotinylated peptide on avidin plate, mAb titrated

| Binder | IC50 [µg/mL] |
| --- | --- |
| B1 | ~0.02 |
| B2 | ~0.02 |
